Positions count from the first letter of the chain named. Numbers in names are those of the source. Where “and” joins values, the source holds several entries; their conditions need not be identical. Equal values may be shown once. Values belong to the binder of their own block, whether it stands above or below them.
Tests used:
[1] = biological target: T1, Human CLEC12A-His (human, UniProt Q5QGZ9 65-265); test: SPR Biacore 8K 37 C; TriNKET captured on anti-hFc chip, hCLEC12A-His as analyte; 1:1 fit; control sample, n=2
T1 construct: Recombinant soluble protein made in house (Dragonfly Tx); The hCLEC12A spot of the HuProt array is written under this molecule as well; also called hCLEC12A-His; hCLEC12A; not shown: His tag
T1 sequence: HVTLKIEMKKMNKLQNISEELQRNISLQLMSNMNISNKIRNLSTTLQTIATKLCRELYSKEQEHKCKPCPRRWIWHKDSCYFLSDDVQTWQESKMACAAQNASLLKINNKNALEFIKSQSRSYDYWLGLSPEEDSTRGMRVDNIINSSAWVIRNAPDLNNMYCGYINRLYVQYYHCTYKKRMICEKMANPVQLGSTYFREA

[2] = biological target: T2, Human CLEC12A-His (recombinant, K244 WT) (human, UniProt Q5QGZ9 65-265); test: SPR, two-state fit (kd1); control sample
T2 construct: Made in house (Dragonfly Tx); also called hCLEC12A; hCLEC12A-His; not shown: His tag
T2 sequence: T1 sequence

[3] = biological target: T3, Human CD16a V158 (FcγRIIIa V158) (human, UniProt P08637 17-208, biotinylated); test: SPR; after 4 wks 40C in HST pH 6.0
T3 construct: Bought recombinant receptor; also called hCD16aV; hFcγRIIIa V158
T3 sequence (P08637 17-208 F176V limits assumed): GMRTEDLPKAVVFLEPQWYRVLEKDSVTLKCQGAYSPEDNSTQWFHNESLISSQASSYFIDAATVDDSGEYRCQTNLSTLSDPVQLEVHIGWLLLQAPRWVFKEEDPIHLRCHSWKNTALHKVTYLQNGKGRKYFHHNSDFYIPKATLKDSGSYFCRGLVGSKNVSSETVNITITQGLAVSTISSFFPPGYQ

[4] = biological target: T4, mFc-hNKG2D (recombinant mFc-tagged human NKG2D dimer) (human, UniProt P26718 73-216); test: SPR; after 4 wks 40C in HST pH 6.0
T4 construct: extracellular domain; Made in house; not shown: mouse Fc tag
T4 sequence (looked up): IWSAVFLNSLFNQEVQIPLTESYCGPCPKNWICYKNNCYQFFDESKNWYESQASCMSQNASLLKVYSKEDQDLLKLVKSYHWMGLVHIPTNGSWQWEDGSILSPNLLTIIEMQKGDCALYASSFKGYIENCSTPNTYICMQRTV

[5] = biological target: T2, Human CLEC12A-His (recombinant, K244 WT); test: SPR, two-state fit (kd1); after 4 wks 40C in CST pH 7.0
[6] = biological target: T3, Human CD16a V158 (FcγRIIIa V158); test: SPR; after pH 5.0, 40C, 2 wks
[7] = biological target: T2, Human CLEC12A-His (recombinant, K244 WT); test: SPR, two-state fit (ka1); control sample
[8] = biological target: T2, Human CLEC12A-His (recombinant, K244 WT); test: SPR, untreated CLEC12A, two-state fit (kd1)
[9] = biological target: T2, Human CLEC12A-His (recombinant, K244 WT); test: SPR, two-state fit; control (fully purified protein study)
[10] = biological target: T2, Human CLEC12A-His (recombinant, K244 WT); test: SPR, two-state fit (kd1); after 4 wks 40C in HST pH 6.0
[11] = biological target: T5, Human CD16b (human, UniProt O75015 17-200, limits assumed, biotinylated); test: SPR, steady state fit; average for AB0192
T5 construct: Bought recombinant receptor; also called hFcγRIIIb
T5 sequence (O75015 17-200 limits assumed): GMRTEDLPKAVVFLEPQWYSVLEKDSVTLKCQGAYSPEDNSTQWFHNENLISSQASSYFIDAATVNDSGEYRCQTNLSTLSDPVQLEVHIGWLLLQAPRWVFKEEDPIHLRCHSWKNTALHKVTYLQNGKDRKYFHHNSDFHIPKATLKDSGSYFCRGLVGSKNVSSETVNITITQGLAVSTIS

[12] = biological target: T6, Human CLEC12A-His (human, UniProt Q5QGZ9 65-265); test: SPR, hCLEC12A (K244) WT
T6 construct: Recombinant soluble protein made in house; also called hCLEC12A-His; hCLEC12A; not shown: His tag
T6 sequence: T1 sequence

[13] = biological target: T6, Human CLEC12A-His; test: SPR; control sample (HST pH 6.0 study)
[14] = biological target: T7, Human CD16a V158 (human, UniProt P08637 17-208, biotinylated); test: SPR; control sample (HST pH 6.0 study)
T7 construct: Bought recombinant receptor; also called hCD16a (V158); hFcγRIIIa V158
T7 sequence (P08637 17-208 F176V limits assumed): as the sequence (P08637 17-208 F176V limits assumed) above

[15] = biological target: T8, mFc-hNKG2D (human, UniProt P26718 73-216); test: SPR; control sample (HST pH 6.0 study)
T8 construct: extracellular domain; Recombinant mFc-tagged NKG2D dimer, made in house; also called human NKG2D; not shown: mouse Fc tag
T8 sequence (looked up): T4 sequence (looked up)

[16] = biological target: T9, recombinant human CLEC12A-His (human, UniProt Q5QGZ9 65-265); test: SPR 37C
T9 construct: also called hCLEC12A-His; hCLEC12A
T9 sequence: T1 sequence

[17] = biological target: T10, human CLEC12A expressed on cells (human, UniProt Q5QGZ9 1-265); test: flow cytometry, HL60
T10 construct: Transduced isogenic cells or endogenous expression on AML cells; also called RMA-hCLEC12A; Ba/F3-hCLEC12A
T10 sequence: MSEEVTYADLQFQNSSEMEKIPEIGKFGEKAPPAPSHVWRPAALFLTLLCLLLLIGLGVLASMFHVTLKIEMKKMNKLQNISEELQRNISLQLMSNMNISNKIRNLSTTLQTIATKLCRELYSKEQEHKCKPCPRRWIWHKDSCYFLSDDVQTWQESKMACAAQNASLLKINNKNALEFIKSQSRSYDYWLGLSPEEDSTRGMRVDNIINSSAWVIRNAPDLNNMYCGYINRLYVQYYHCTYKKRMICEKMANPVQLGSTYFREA

[18] = biological target: T11, recombinant cynomolgus CD16 (cynomolgus monkey, UniProt Q8SPW2 17-208, biotinylated); test: SPR 25C, steady state
T11 construct: also called cFcγRIII; cyno CD16
T11 sequence (Q8SPW2 17-208 limits assumed): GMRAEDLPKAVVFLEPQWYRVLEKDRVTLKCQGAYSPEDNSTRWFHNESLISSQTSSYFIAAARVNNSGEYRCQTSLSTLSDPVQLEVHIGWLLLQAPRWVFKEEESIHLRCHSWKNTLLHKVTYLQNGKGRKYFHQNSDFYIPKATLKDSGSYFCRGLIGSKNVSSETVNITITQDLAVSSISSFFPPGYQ

Kd [1]: 1.2 nM
koff [1]: 0.000933 s⁻¹
kon [1]: 779000 M⁻¹ s⁻¹
B1: F3'-1602 TriNKET (bispecific antibody, human IgG1, kappa)
chain: QLQLQESGPGLVKPSETLSLTCTVSGFSLTNYGLHWIRQPPGKCLEWIGVIWSGGKTDYNPSLKSRVTISKDTSKNQFSLKLSSVQAADTAVYYCAKYDYDDSLDYWGQGTLVTVSSGGGGSGGGGSGGGGSGGGGSDIQMTQSPSSLSASVGDRVTITCHASQNINFWLSWYQQKPGKAPKLLIYEASNLHTGVPSRFSGSGSGTRFTLTISSLQPEDIATYYCQQSHSYPLTFGCGTKLEIKGSDKTHTCPPCPAPELLGGPSVFLFPPKPKDTLMISRTPEVTCVVVDVSHEDPEVKFNWYVDGVEVHNAKTKPREEQYNSTYRVVSVLTVLHQDWLNGKEYKCKVSNKALPAPIEKTISKAKGQPREPRVYTLPPCRDELTKNQVSLTCLVKGFYPSDIAVEWESNGQPENNYKTTPPVLVSDGSFTLYSKLTVDKSRWQQGNVFSCSVMHEALHNHYTQKSLSLSPG
heavy: EVQLVESGGGLVKPGGSLRLSCAASGFTFSSYSMNWVRQAPGKGLEWVSSISSSSSYIYYADSVKGRFTISRDNAKNSLYLQMNSLRAEDTAVYYCARGAPIGAAAGWFDPWGQGTLVTVSSASTKGPSVFPLAPSSKSTSGGTAALGCLVKDYFPEPVTVSWNSGALTSGVHTFPAVLQSSGLYSLSSVVTVPSSSLGTQTYICNVNHKPSNTKVDKKVEPKSCDKTHTCPPCPAPELLGGPSVFLFPPKPKDTLMISRTPEVTCVVVDVSHEDPEVKFNWYVDGVEVHNAKTKPREEQYNSTYRVVSVLTVLHQDWLNGKEYKCKVSNKALPAPIEKTISKAKGQPREPQVCTLPPSRDELTENQVSLTCLVKGFYPSDIAVEWESNGQPENNYKTTPPVLDSDGSFFLYSWLTVDKSRWQQGNVFSCSVMHEALHNHYTQKSLSLSPG
light: DIQMTQSPSSVSASVGDRVTITCRASQGISSWLAWYQQKPGKAPKLLIYAASSLQSGVPSRFSGSGSGTDFTLTISSLQPEDFATYYCQQGVSFPRTFGGGTKVEIKRTVAAPSVFIFPPSDEQLKSGTASVVCLLNNFYPREAKVQWKVDNALQSGNSQESVTEQDSKDSTYSLSSTLTLSKADYEKHKVYACEVTHQGLSSPVTKSFNRGEC
notes: Trispecific F3' format: CLEC12A scFv-Fc paired with NKG2D Fab-Fc; Stressed and control samples of the stability studies are the same molecule; also called AB0237

koff [2]: 0.0435 s⁻¹
Kd [3]: 359 nM
koff [3]: 0.0284 s⁻¹
kon [3]: 79300 M⁻¹ s⁻¹
Kd [4]: 796 nM
koff [4]: 0.132 s⁻¹
kon [4]: 166000 M⁻¹ s⁻¹
koff [5]: 0.0373 s⁻¹
Kd [6]: 383 nM
koff [6]: 0.0289 s⁻¹
kon [6]: 75400 M⁻¹ s⁻¹
kon [7]: 1.04e+07 M⁻¹ s⁻¹
koff [8]: 0.0398 s⁻¹
Kd [9]: 0.51 nM
koff [10]: 0.0424 s⁻¹
B2: AB0089 TriNKET (bispecific antibody, human IgG1, kappa)
chain: B1 chain with S53V, K56A, K71V, Y98G, D101G, S103T, R207D, I220F
heavy: B1 heavy
light: B1 light
notes: F3' format heterodimer of three chains; human IgG1 Fc with EW-RVT and Y349C/S354C mutations; also called AB0089 Lot AB0089-002; CLEC12A TriNKET AB0089

Kd [11]: 6000 nM
Kd [12]: 1.65 nM
koff [12]: 0.00115 s⁻¹
kon [12]: 698000 M⁻¹ s⁻¹
Kd [13]: 1.81 nM
koff [13]: 0.0014 s⁻¹
kon [13]: 776000 M⁻¹ s⁻¹
Kd [14]: 171 nM
koff [14]: 0.0199 s⁻¹
kon [14]: 117000 M⁻¹ s⁻¹
Kd [15]: 588 nM
koff [15]: 0.122 s⁻¹
kon [15]: 208000 M⁻¹ s⁻¹
B3: AB0192 TriNKET (other)
chain: EVQLVESGGGVVQPGGSLRLSCAASGFTFNAFGMHWVRQAPGKCLEWVAFISSGSTSIYYANTVKGRFTISRDNSKNTLYLQMNSLRAEDTAVYYCARDGYPTGGAMDYWGQGTSVTVSSGGGGSGGGGSGGGGSGGGGSDIQMTQSPSSLSASVGDRVTITCKASQDIYNYLSWFQQKPGKAPKPLIYRANILVSGVPSRFSGSGSGQDYTFTISSLQPEDIATYYCLQFDAFPFTFGCGTKLEIKGSDKTHTCPPCPAPELLGGPSVFLFPPKPKDTLMISRTPEVTCVVVDVSHEDPEVKFNWYVDGVEVHNAKTKPREEQYNSTYRVVSVLTVLHQDWLNGKEYKCKVSNKALPAPIEKTISKAKGQPREPRVYTLPPCRDELTKNQVSLTCLVKGFYPSDIAVEWESNGQPENNYKTTPPVLVSDGSFTLYSKLTVDKSRWQQGNVFSCSVMHEALHNHYTQKSLSLSPG
heavy: B1 heavy
light: B1 light
notes: the condition stands under assay; also called AB0192 Lot AB0192-005

Kd [16]: 0.58 nM and 0.59 nM and 0.57 nM and 0.6 nM
koff [16]: 0.000494 s⁻¹ and 0.000489 s⁻¹ and 0.000499 s⁻¹
kon [16]: 854000 M⁻¹ s⁻¹ and 833000 M⁻¹ s⁻¹ and 863000 M⁻¹ s⁻¹ and 826000 M⁻¹ s⁻¹
EC50 [17]: 1.1 nM
Kd [18]: 315 nM and 294 nM and 302 nM
B4: F3'-1602 TriNKET (other)
chain: B1 chain
heavy: B1 heavy
light: B1 light
notes: CLEC12A scFv-Fc, NKG2D A49MI Fab-Fc, human IgG1 Fc; also called AB0237
